One assay concerns the target soluble ztnf4 (human) (UniProt Q9Y275). Put plainly: cell-based or functional assay.
For the next assay, the target named is T1, soluble I^125-ztnf4 (human, UniProt Q9Y275 134-285, limits assumed, 125I-labelled).
T1 construct: also called ztnf4 sol; neutrokine alpha
Put plainly: Scatchard analysis of soluble 125I-ztnf4 on stable BHK transfectants expressing BCMA.

The source of these data is patent EP1354598A2 (ZymoGenetics, Inc., dated 2003).

The Kd is the equilibrium constant for the complex coming apart. The low end stands for tighter binding, the high end for weaker binding.

T1 sequence (Q9Y275 134-285 limits assumed): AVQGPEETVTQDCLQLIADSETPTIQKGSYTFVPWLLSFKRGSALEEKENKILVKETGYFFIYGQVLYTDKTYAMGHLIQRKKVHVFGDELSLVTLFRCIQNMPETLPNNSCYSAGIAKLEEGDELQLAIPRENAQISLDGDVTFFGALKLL
Sequence of soluble ztnf4 (human) (Q9Y275 134-285 limits assumed): as above

B1: TACI-Ig soluble receptor (TACI-Fc4 fusion protein) (Fc fusion, part only; not given: Fc4 part, part only)
chain, part: MSGLGRSRRGGRSRVDQEERFPQGLWTGVAMRSCPEEQYWDPLLGTCMSCKTICNHQSQRTCAAFCRSLSCRKEQGKFYDHLLRDCISCASICGQHPKQCAYFCENKLRSPVNLPPELRRQRSGEVENNSDNSGRYQGLEHRGSEASPALPGLKLSADQVALVYS
For the molecule B1, the inhibition of soluble ztnf4-stimulated human B cell proliferation (3H thymidine, with IL-4) (fold molar excess) with soluble ztnf4 (human) was found to be 10.

B2: BCMA (SEQ ID NO:8) (receptor)
chain: MLQMAGQCSQNEYFDSLLHACIPCQLRCSSNTPPLTCQRYCNASVTNSVKGTNAILWTCLGLSLIISLAVFVLMFLLRKISSEPLKDEFKNTGSGLLGMANIDLEKSRTGDEIILPRGLEYTVEECTCEDCIKSKPKVDSDHCFPLPAMEEGATILVTTKTNDYCKSLPAALSATEIEKSISAR
notes: also called BCMA-BHK
On to B2, for which, in the assay with soluble I^125-ztnf4, the Kd was 1.25 nM.
